Substrate in data set [1]: Nc1nc(O)cc(-c2cncn2C2O[C@H](CO)[C@@H](O)[C@H]2O)n1
Description: Enzyme kinetic constant for S-adenosyl-L-homocysteine hydrolase; Not a substrate.

Substrate in data set [2]: Nc1nc(O)cc(-c2cncn2C2O[C@H](CO)[C@@H](O)[C@H]2O)n1
Description: Enzyme kinetic constant for S-adenosyl-L-homocysteine hydrolase in hydrolysis direction.

Substrate in data set [3]: Nc1cc(-c2cncn2C2O[C@H](CO)[C@@H](O)[C@H]2O)ncn1
Description: (§1) Enzyme kinetic constant for S-adenosyl-L-homocysteine hydrolase.

Substrate in data set [4]: Nc1nc2c(ncn2[C@@H]2O[C@H](CO)[C@@H](O)[C@H]2O)c(=O)[nH]1
The description is as §1.

Substrate in data set [5]: Nc1ncnc2c1ncn2[C@@H]1O[C@H](CO)[C@@H](O)[C@H]1O
The description is as §1.

Substrate in data set [6]: O=c1[nH]cnc2c1ncn2[C@@H]1O[C@H](CO)[C@@H](O)[C@H]1O
The description is as §1.

Substrate in data set [7]: OC[C@H]1OC(n2cncc2-c2cc(O)ncn2)[C@H](O)[C@@H]1O
Described as §1.

B1: Adenosylhomocysteinase (Homo sapiens), P23526 (protein)
chain: MSDKLPYKVADIGLAAWGRKALDIAENEMPGLMRMRERYSASKPLKGARIAGCLHMTVETAVLIETLVTLGAEVQWSSCNIFSTQDHAAAAIAKAGIPVYAWKGETDEEYLWCIEQTLYFKDGPLNMILDDGGDLTNLIHTKYPQLLPGIRGISEETTTGVHNLYKMMANGILKVPAINVNDSVTKSKFDNLYGCRESLIDGIKRATDVMIAGKVAVVAGYGDVGKGCAQALRGFGARVIITEIDPINALQAAMEGYEVTTMDEACQEGNIFVTTTGCIDIILGRHFEQMKDDAIVCNIGHFDVEIDVKWLNENAVEKVNIKPQVDRYRLKNGRRIILLAEGRLVNLGCAMGHPSFVMSNSFTNQVMAQIELWTHPDKYPVGVHFLPKKLDEAVAEAHLGKLNVKLTKLTEKQAQYLGMSCDGPFKPDHYRY
For the protein B1, the Km entry is “Not a substrate” in data set [1]; 6.6 µM in data set [2]; 54.4 µM in data set [3]; 844 µM in data set [4]; 0.82 µM in data set [5]; 2.5 µM in data set [6]. The Km in data set [7] was determined as 421 µM.

Broadly, the Km is the substrate concentration at which the rate is half of its maximum.

The values above are taken from ChEMBL document CHEMBL1136535, “Unexpected inhibition of S-adenosyl-L-homocysteine hydrolase by a guanosine nucleoside” (Bioorg Med Chem Lett, 2003).
